In patent publication US20120294945A1:
Ends that are not written are not given here. HA = hyaluronic acid (HA-TBA), bound to the peptide's terminal amine

Biological target: Flt1-Fc (R&D systems, Minneapolis, Minn.) (UniProt P17948)
Assay: competition ELISA, VEGF165-coated plate, 500 ng/mL Flt1-Fc, conjugate at rising peptide concentration

Flt1-Fc (R&D systems, Minneapolis, Minn.), sequence (P17948 27-756 limits assumed): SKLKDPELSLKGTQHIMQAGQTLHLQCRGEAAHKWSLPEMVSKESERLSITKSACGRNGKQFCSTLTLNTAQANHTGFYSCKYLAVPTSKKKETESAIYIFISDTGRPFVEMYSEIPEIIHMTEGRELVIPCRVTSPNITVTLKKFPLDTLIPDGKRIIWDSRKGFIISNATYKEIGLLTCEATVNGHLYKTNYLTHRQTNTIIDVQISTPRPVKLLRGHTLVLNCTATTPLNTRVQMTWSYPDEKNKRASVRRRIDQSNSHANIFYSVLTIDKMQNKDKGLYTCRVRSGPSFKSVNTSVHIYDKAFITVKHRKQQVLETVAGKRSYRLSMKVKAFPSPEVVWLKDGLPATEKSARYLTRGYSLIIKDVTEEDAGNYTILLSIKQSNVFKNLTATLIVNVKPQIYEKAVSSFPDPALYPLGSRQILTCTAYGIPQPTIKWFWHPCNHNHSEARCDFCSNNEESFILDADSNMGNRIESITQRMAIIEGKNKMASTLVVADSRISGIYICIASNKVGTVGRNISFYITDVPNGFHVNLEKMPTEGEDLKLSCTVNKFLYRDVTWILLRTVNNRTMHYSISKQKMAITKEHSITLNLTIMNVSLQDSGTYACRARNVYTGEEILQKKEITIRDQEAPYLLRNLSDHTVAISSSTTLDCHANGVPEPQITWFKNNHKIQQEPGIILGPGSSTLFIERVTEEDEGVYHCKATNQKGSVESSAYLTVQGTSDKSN

B1: hyaluronic acid-peptide conjugate with a lower peptide content of Preparation Example 3 (HA-GGNQWFI) (peptide)
peptide: {HA}-GGNQWFI
modifications: also: 20 peptides conjugated per HA-TBA molecule
- inhibition of the bonding between VEGF165 and Flt1-Fc (luminescence, positive control = 100%): 32%
